From US20040038369

Molecular target: T1, HBEGF (delta TM)-ALP, Q99075
T1 chain: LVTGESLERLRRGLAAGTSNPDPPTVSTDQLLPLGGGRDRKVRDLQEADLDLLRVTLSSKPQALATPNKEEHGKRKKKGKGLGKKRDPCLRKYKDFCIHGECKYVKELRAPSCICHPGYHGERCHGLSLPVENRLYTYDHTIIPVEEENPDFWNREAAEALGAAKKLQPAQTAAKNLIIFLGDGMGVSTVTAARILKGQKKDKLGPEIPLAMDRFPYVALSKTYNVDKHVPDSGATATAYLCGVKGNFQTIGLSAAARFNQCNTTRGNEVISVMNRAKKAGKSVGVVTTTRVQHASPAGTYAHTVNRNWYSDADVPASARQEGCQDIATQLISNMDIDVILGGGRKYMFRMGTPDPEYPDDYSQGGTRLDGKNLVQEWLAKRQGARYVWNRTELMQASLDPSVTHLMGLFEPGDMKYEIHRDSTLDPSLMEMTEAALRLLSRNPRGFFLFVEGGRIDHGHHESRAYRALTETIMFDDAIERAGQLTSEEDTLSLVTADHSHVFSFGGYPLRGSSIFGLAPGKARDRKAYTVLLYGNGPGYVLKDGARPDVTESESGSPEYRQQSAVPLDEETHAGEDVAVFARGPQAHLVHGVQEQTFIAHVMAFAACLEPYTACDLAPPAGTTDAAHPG

B1: recombinant AST (human airway-specific trypsin-like enzyme expressed in insect cells with a baculovirus vector, purified as in Example 1) (peptide)
chain 1: DQAAANWLINECGAGPDLITLSEQR
chain 2: not shown
B1 was tested, and the “cleavage seen by western blotting of the lysate incubated with recombinant HAST (1.56 U/mL) at 37° C. overnight” value was “A mature type having the EGF domain of the HB-EGF was cut out. The band was shifted to a position of about 12 kD”.
